Measurements from patent US20110236900, “NOVEL MUTS PROTEIN AND METHOD FOR DETERMING MUTATION USING THE SAME” (RIKEN, published 2011).

Experiments:
[1] = test system: T1, Aac MutS (Alicyclobacillus acidocaldarius subsp. acidocaldarius JCM5260); experiment: SPR; conditions: 20 mM MgCl2
T1 sequence: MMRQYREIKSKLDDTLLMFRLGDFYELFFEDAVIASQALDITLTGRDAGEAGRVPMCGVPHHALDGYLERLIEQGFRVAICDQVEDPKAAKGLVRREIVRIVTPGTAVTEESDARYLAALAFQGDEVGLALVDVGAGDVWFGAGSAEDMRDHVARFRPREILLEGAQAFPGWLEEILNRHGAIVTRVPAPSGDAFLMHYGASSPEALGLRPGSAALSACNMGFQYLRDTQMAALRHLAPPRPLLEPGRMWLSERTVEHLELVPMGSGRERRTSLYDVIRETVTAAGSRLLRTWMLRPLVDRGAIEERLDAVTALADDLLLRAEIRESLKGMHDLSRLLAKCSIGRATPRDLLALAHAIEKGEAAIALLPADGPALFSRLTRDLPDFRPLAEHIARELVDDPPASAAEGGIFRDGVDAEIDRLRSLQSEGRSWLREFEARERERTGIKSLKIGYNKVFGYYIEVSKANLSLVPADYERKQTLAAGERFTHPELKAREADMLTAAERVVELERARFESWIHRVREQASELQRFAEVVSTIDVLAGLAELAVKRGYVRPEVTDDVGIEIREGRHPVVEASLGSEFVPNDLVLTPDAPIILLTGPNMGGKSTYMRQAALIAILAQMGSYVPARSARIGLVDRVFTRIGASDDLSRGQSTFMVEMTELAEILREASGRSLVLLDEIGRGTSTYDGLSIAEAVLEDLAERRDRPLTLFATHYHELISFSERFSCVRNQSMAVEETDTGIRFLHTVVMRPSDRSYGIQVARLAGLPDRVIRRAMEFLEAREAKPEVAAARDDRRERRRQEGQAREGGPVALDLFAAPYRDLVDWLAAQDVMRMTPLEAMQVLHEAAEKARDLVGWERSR

[2] = biological target: T2, Aac MutS (Alicyclobacillus acidocaldarius subsp. …); experiment: SPR; Example 3-1; 1 mM ADP, 20 mM MgCl2, 50 mM KCl, pH 7.6; conditions: tags: none stated (pET17b, E. coli BL21-CodonPlus(DE3)RIL); chain copies: 2 stated; label: 5'-biotin on T-strand; single G-T mismatch
T2 chain: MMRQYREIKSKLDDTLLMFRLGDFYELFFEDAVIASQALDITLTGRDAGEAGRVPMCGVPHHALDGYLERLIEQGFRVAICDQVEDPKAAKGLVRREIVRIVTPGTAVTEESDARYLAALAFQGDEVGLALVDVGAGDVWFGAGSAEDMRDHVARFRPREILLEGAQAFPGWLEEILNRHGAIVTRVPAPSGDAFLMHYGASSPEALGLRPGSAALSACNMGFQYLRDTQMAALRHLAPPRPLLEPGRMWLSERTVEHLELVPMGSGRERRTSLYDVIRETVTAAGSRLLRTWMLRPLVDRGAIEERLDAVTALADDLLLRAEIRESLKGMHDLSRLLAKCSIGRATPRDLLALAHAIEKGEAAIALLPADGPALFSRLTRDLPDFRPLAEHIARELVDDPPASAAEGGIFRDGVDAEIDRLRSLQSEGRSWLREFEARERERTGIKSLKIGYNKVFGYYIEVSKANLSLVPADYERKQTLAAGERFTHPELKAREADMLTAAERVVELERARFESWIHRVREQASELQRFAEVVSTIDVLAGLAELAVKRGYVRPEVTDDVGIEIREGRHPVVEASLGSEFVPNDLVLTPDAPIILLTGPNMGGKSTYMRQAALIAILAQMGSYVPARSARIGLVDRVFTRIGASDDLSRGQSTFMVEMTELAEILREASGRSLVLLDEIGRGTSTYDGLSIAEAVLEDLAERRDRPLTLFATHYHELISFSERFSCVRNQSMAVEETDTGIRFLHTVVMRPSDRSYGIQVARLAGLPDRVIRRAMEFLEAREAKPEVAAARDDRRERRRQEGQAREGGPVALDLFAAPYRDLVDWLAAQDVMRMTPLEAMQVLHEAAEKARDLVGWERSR
Method: (§1) The chip was set in BIACORE3000, then the running buffer was passed through a channel of the chip at a flow rate of 10 μL/min, and an experiment was started as follows. First, 5 μmol/L C-strand DNA, 5 μmol/L T-strand DNA, and 5 μmol/L Del-strand DNA as regands were passed through the respective three flow cells contained in the chip at a flow rate of 10 μL/min, and they were bound to each other until the Resonance Unit reached about 150 RU (Resonance Unit). Subsequently, 5 μmol/L of the G-strand DNA was injected into each of the flow cells at a flow rate of 20 μL/min for 2 minutes, and thereafter, the flow cells were washed with the running buffer for 10 minutes. Thus, double-stranded DNAs between the C-strand DNA and the G-strand DNA, between T-strand DNA and the same, and between the Del-strand DNA and the same were formed. […] While injecting and washing, signal intensity was measured from the start of the injection of the Aac MutS. In Comparative Example 1, signal intensity was measured by the same treatment as that of Example 2 using Taq MutS derived from Thermus aquatieus as substitute for the Aac MutS.
(§2) The signal intensity was measured in the same manner as in Example 2 except that 1 mmol/L ADP or ATP was added to the running buffer of Example 2. […] In Comparative Example 2, the signal intensity was measured using the Taq MutS in the same manner as in Example 3. […]

[3] = biological target: T3, Taq MutS (Thermus aquaticus, UniProt Q56215 Q56215:1-811); experiment: SPR; Comp. Ex. 2-1; 1 mM ADP, 20 mM MgCl2
T3 sequence: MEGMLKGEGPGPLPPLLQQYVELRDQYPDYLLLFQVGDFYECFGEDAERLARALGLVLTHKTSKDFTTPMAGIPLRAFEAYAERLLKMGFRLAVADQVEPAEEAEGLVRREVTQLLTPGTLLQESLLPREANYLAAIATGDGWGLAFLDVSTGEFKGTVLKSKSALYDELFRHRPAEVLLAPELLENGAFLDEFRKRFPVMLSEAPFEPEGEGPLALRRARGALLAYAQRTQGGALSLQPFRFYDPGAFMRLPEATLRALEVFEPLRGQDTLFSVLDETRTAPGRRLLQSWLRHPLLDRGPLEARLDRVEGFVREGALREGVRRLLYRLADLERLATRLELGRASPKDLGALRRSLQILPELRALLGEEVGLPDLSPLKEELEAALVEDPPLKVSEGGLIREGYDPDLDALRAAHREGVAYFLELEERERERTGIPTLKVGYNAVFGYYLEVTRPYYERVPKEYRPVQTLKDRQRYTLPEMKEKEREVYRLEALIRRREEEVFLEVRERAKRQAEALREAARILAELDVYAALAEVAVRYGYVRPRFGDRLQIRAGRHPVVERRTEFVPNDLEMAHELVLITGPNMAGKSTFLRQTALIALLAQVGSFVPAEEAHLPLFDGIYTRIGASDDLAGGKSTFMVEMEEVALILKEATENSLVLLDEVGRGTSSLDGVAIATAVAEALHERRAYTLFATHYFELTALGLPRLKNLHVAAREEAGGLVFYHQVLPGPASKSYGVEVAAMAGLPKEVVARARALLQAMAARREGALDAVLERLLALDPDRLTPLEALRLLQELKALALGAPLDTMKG
Method: as §1, §2

[4] = biological target: T2, Aac MutS; experiment: SPR; Example 2; no nucleotide, 20 mM MgCl2, 50 mM KCl, pH 7.6; conditions: tags: none stated (pET17b, E. coli BL21-CodonPlus(DE3)RIL); chain copies: 2 stated; label: 5'-biotin on T-strand; single G-T mismatch
Method: (§3) The chip was set in BIACORE3000, then the running buffer was passed through a channel of the chip at a flow rate of 10 μL/min, and an experiment was started as follows. First, 5 μmol/L C-strand DNA, 5 μmol/L T-strand DNA, and 5 μmol/L Del-strand DNA as regands were passed through the respective three flow cells contained in the chip at a flow rate of 10 μL/min, and they were bound to each other until the Resonance Unit reached about 150 RU (Resonance Unit). Subsequently, 5 μmol/L of the G-strand DNA was injected into each of the flow cells at a flow rate of 20 μL/min for 2 minutes, and thereafter, the flow cells were washed with the running buffer for 10 minutes. Thus, double-stranded DNAs between the C-strand DNA and the G-strand DNA, between T-strand DNA and the same, and between the Del-strand DNA and the same were formed. Then, an Aac MutS solution with the predetermined concentration (0.1, 0.2, 0.5, 1, 2, or 4 μmol/L) was injected into each of the flow cells at a flow rate of 20 μL/min for 10 minutes, and thereafter, the flow cells were washed with the running buffer for 20 minutes. While injecting and washing, signal intensity was measured from the start of the injection of the Aac MutS. In Comparative Example 1, signal intensity was measured by the same treatment as that of Example 2 using Taq MutS derived from Thermus aquatieus as substitute for the Aac MutS.

[5] = biological target: T3, Taq MutS; experiment: SPR; Comp. Ex. 1; no nucleotide, 20 mM MgCl2, 50 mM KCl, pH 7.6; conditions: label: 5'-biotin on T-strand; single G-T mismatch
Method: as §3

[6] = biological target: T3, Taq MutS; experiment: SPR; Comp. Ex. 1; no nucleotide, 20 mM MgCl2; conditions: label: 5'-biotin on C-strand
Method: as §3

With “CCGCTGAATTGCACCGAGCTCGATCCTCGATGATCCTAAGCGATCCATG (double strand) [C/G fully-matched duplex]” the Kd ([1]; Example 2, no nucleotide, text says binding not found) was 65.5 µM and the Kd ([1]; Example 3-1, 1 mM ADP, binding described as sufficiently suppressed) was 19.8 µM.

B1: T/G mismatched duplex (dsDNA)
DNA 1: CCGCTGAATTGCACCGAGCTTGATCCTCGATGATCCTAAGCGATCCATG
DNA 2: CATGGATCGCTTAGGATCATCGAGGATCGAGCTCGGTGCAATTCAGCGG
For B1, the Kd [2] was 330 nM, the Kd ([3]; label: 5'-biotin on T-strand, single G-T mismatch) was 2.26 µM and the Kd [4] was 1450 nM. The Kd [5] was 622 nM.

B2: C/G fully-matched duplex (dsDNA)
DNA 1: CCGCTGAATTGCACCGAGCTCGATCCTCGATGATCCTAAGCGATCCATG
DNA 2: CATGGATCGCTTAGGATCATCGAGGATCGAGCTCGGTGCAATTCAGCGG
With B2 the Kd ([3]; label: 5'-biotin on C-strand) was 6.58 µM and the Kd [6] was 2270 nM.
